Measured values reported in PMC2676576 (Structure (London, England : 1993), 2009).

Tests used:
bovine ubiquitin = bovine ubiquitin (bovine, UniProt P0CG53 1-76); assay: SPR
[1] = target: STAM(10-390) of the ΔCT construct (human, UniProt Q92783 10-390); assay: AUC
Chain of STAM(10-390) of the ΔCT construct (Q92783 10-390, stated change not applied): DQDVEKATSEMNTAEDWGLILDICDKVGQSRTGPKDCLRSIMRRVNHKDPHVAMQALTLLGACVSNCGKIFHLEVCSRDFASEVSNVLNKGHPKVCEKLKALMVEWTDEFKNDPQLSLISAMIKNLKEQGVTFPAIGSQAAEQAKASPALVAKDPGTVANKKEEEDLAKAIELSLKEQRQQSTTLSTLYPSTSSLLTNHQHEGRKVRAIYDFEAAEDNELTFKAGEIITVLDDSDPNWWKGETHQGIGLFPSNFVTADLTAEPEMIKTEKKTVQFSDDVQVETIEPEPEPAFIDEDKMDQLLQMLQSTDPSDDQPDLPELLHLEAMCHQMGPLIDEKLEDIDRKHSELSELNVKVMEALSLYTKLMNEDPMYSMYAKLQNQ

Binder	Kd (bovine ubiquitin) [µM]	stoichiometry N [1]
his-tagged STAM VHS domain (residues 1-143) (domain or fragment) not shown	157	–
Hrs(1-557) of the ΔCT construct (domain or fragment, human, UniProt O14964 1-557, looked up) MGRGSGTFERLLDKATSQLLLETDWESILQICDLIRQGDTQAKYAVNSIKKKVNDKNPHVALYALEVMESVVKNCGQTVHDEVANKQTMEELKDLLKRQVEVNVRNKILYLIQAWAHAFRNEPKYKVVQDTYQIMKVEGHVFPEFKESDAMFAAERAPDWVDAEECHRCRVQFGVMTRKHHCRACGQIFCGKCSSKYSTIPKFGIEKEVRVCEPCYEQLNRKAEGKATSTTELPPEYLTSPLSQQSQLPPKRDETALQEEEELQLALALSQSEAEEKERLRQKSTYTSYPKAEPMPSASSAPPASSLYSSPVNSSAPLAEDIDPELARYLNRNYWEKKQEEARKSPTPSAPVPLTEPAAQPGEGHAAPTNVVENPLPETDSQPIPPSGGPFSEPQFHNGESEESHEQFLKALQNAVTTFVNRMKSNHMRGRSITNDSAVLSLFQSINGMHPQLLELLNQLDERRLYYEGLQDKLAQIRDARGALSALREEHREKLRRAAEEAERQRQIQLAQKLEIMRQKKQEYLEVQRQLAIQRLQEQEKERQMRLEQQKQTVQMR	–	1 Hrs:STAM
